According to patent US20220288160A1 (SYNKLINO A S, published 2022):

Columns and labels:
[1] = target: T1, CX3CR1 (human, UniProt P49238 1-355); experiment: cell-based or functional assay
T1 sequence: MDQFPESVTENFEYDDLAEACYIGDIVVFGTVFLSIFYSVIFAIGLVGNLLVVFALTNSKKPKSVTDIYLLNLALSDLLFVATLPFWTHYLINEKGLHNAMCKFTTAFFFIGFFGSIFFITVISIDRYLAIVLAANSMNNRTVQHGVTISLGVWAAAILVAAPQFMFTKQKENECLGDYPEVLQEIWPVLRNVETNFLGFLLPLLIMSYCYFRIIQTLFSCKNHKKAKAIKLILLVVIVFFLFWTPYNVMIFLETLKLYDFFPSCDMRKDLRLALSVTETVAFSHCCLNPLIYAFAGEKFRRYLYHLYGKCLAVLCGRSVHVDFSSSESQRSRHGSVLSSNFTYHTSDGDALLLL

[2] = target: T2, US28 (human cytomegalovirus, UniProt P69332 1-354); experiment: cell-based or functional assay
T2 sequence: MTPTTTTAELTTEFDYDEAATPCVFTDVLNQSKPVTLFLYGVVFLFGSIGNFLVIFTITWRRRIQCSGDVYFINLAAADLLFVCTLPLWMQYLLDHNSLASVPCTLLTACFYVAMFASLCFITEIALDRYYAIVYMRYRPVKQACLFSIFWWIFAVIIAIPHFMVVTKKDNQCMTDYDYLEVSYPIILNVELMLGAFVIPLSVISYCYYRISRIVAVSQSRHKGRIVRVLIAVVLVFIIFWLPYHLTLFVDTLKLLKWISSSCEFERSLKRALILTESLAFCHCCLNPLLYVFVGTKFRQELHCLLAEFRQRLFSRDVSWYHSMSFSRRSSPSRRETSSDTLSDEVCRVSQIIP

B1: SYN001 (other)
chain: MQHHGVTKCNITCSKMTSKIPVALLIHYQQNQASCGKRAIILETRQHRLACADPKEQWVKDAMQHLDRQAAALTRNRQPRGWEQLEQSGYPVQRLVALYLAARLSWNQVDQVIRNALASPGSGGDLGEAIREQPEQARLALTLAAAESERFVRQGTGNDEAGAASGPADSGDALLERNYPTGAEFLGDGGDISFSTRGTQNWTVERLLQAHRQLEERGYVFVGYHGTFLEAAQSIVFGGVRARSQDLDAIWRGFYIAGDPALAYGYAQDQEPDARGRIRNGALLRVYVPRSSLPGFYRTGLTLAAPEAAGEVERLIGHPLPLRLDAITGPEEEGGRLETILGWPLAERTVVIPSAIPTDPRNVGGDLDPSSIPDKEQAISALPDYASQPGKPPKDE
**Q.** How did the “Log IC50 (cell killing)” value [1] turn out when B1 was run?
**A.** The value was -7.82.

**Q.** What about the “Log IC50 (cell killing)” value [2] of the same binder?
**A.** The value was -10.7.
